T1: His-SUMOSTAR-FANCD2(1-762) (Drosophila melanogaster) (Drosophila melanogaster, UniProt Q8MYL1 1-762)
T1 sequence (looked up): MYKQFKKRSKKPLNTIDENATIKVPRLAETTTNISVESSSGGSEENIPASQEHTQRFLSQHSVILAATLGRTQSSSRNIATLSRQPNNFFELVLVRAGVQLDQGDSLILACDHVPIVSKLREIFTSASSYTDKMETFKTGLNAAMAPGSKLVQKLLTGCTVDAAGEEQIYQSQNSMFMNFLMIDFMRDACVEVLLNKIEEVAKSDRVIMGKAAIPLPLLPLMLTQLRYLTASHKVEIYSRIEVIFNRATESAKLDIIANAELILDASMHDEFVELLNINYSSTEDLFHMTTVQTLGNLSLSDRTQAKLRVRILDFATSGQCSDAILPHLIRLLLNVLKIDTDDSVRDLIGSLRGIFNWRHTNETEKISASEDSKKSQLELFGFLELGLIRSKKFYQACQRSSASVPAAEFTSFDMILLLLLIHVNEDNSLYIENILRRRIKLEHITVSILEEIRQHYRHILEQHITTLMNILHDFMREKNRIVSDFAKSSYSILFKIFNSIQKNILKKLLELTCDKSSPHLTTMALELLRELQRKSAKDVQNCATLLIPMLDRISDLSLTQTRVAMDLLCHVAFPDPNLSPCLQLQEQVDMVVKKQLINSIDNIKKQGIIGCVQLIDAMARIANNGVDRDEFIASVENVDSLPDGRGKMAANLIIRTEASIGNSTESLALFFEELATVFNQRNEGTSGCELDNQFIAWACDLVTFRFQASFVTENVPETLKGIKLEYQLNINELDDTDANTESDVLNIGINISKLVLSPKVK


Molecular target: T1, His-SUMOSTAR-FANCD2(1-762) (Drosophila …)
Assay: pull-down

binding result	Binder
binds	Drosophila melanogaster FANCL, full length (enzyme, UniProt Q8T913 1-381, looked up) MESNEDVERLLCQKYPGLAAELQPSGACIIRGVLGSEDTWRRLKLYLPHHPALHGFQLYVQESLEYKLYTSANLKLQDDWLLEDFLDHLPKILPAQKAPTVPKELCREGNIYYDILALYKSNEYCLQVDEACSMIRFSEFTDFEQHYLELKIPSLLLLDHSLPDCVSLGEMLTKSAGNLEEALNLFRKLLEDLRPFYDNFMDIDELCHVLQPSPISSKHKTRLFPLKDRVYLKLTIADPFACIASMSLKIIGPTEEVARLRHVLSDGLSNWDSEMNIHKNLLRMFDLCYFPMPDWSDGPKLDEEDNEELRCNICFAYRLDGGEVPLVSCDNAKCVLKCHAVCLEEWFKTLMDGKTFLEVSFGQCPFCKAKLSTSFAALLND
binds	FANCL DRWD-RING (residues 105-381) (domain or fragment, Drosophila melanogaster, UniProt Q8T913 105-381, looked up) LCREGNIYYDILALYKSNEYCLQVDEACSMIRFSEFTDFEQHYLELKIPSLLLLDHSLPDCVSLGEMLTKSAGNLEEALNLFRKLLEDLRPFYDNFMDIDELCHVLQPSPISSKHKTRLFPLKDRVYLKLTIADPFACIASMSLKIIGPTEEVARLRHVLSDGLSNWDSEMNIHKNLLRMFDLCYFPMPDWSDGPKLDEEDNEELRCNICFAYRLDGGEVPLVSCDNAKCVLKCHAVCLEEWFKTLMDGKTFLEVSFGQCPFCKAKLSTSFAALLND

— paper PMC2929457 (Nature structural & molecular biology, 2010)
